# Results as given in a protein production outcome set (Wang et al. 2014).
# Test: label from the status in PepcDB records
row,Sequence,protein production
1,MPITSSSETFASFFNDWLCRHRQFVQQLAHLADETTIVTPIEEESLVSNFLSHYLQYYEEKSVAMSVAGDDIYDFFSPPWLSSYEKLILWIGGFKPGMVFKLITTSVNDLTSHQIDQLESIRLETKRRERDLMRRFALLQQSVGDPLLMVPFRRIGVLRLGEGEQPEMEDAMEVLKVEMIKAMKNADQLRCVTVGKVVEVLNPRQSIKLLRAAGEFYLRLRDLGV,failed
2,MFAHQNASFPPRPEGRGGKEAVFRLTVFCIITFSSLICEAMKRAYKYRFYPTTEQAELLAQTFGCVRFVYNSILRWRTDAYYERKEKIGYLQANARLTALKKEPEFAWLNDVSCVPLQQSLRHQQTAFANFFAGRAAYPAFKSKRHKQAAEFTASAFKYRDGKLYMAKNKIPLDVRWSRPLPSVPSTVTISKDAAGRYFVSCLCEFEPASLPITSSMVGIDVGLKDLFVTDTGFRSGNPRHTAKYAARLALLQRRLSKKAKGSKNRAKAHLKVARLHAKIADCRLDALHKATRKLINDNQVVCVESLKVRNMIRNPSLSKAIADASWGELVRQLRYKGEWAGRSVVAIDQFFPSSKRCSCCGFIMKKMPLDVRKWQCPECGTDHDRDVNAARNIKAAGLAVLAHGEPVNPESLKAALEHHHHHH,failed
3,MQIVKKEKFILKEYTFENGRTIPVQMGYETYGTLNRERSNVILICHYFSATSHAAGKYTAHDEESGWWDGLIGPGKAIDTNQYFVICTDNLCNVQVKNPHVITTGPKSINPKTGDEYAMDFPVFTFLDVARMQCELIKDMGIARLHAVMGPSAGGMIAQQWAVHYPHMVERMIGVITNPQNPIITSVNVAQNAIEAIRLDPSWKGGKYGEEQPMKGLQLANRMMFMNAFDEHFYETTYPRNSIEVEPYEKVSSLTSFEKEINKLTYRSIELVDANSWMYTAKAVLLHDIAHGFSSLEEALSNVEANVLMIPCKQDLLQPSRYNYKMVDLLQKQGKYAEVYEIESINGHMAGVFDIHLFEKKVYEFLNRKVSSFV,not failed
4,EKTVRVVINFKKTQKTIVRVSPHASLQELAPIICSKCEFDPLHTLLLKDYQSQEPLDLTKSLNDLGLRELYAMDVNRE,not failed
5,TDLPMPRVTVFALWEPLAIMRELWAEGGIGPGRLAVMDRVKGPKTGLLMRHQDKPGGVAFVAIHDGVAMLHALEIPPHQRRKGLGKWAMRGAAFWALDNGAHTLSVICTKANEGANALYRSLGMQLVGEYHYRLLQE,failed
6,MAIEPSLISSLTWFAHVARHRSFTKAASEMGVTRAALSQHVKGLEKQLQVRLLNRTTRNMSLTEEGQRLLDTLHPSLSNIEQTLNSLNDLHIEPAGLIRISVSRTAARLLIEPHLGEFLSRYPKIRLELIMDDGLTNIVAEGMDAGIRLGVSLDEHMVAIPITPNLTNAIVGSPDYFKRYGKPETPNDLEHHNCLAYRFTSSGTLDHWSLTSPDVDKHTVIFEPKGNAVFNDDYSMLQAAMQGVGLIKHIDLWVLKYLEEGKLERVFVDWCKPFPGFYLYIPSRENMPKKIRVLMDFLIEKRAEL,failed
7,ERRKTLETYQQLFYLLQTNPLYLAKLIFQMPQNKSTKFMDTVIFTLYNYASNQREEYLLLKLFKTALEEEIKSKVDQVQDIVTGNPTVIKMVVSFNRGARGQNTLRQLLAPVVKEIIDDKSLIINTNPVEVYKAWVNQL,failed
8,TQSNLYSFLKAISNRFSQYNYSSILCVTSISFDIFILETLFPIFMGKTCVFASDEEIEDISKLTQLIRIYQVDTIQSTPSRWGIFTEDEQLMTLLKERLKLVLVGGEKLTKNIAEKLLSIGGKLINLYGPTEATVWAFASEVTDPNQIYLGEP,failed
9,MRAAGRDRAERRMPHTWSFDYFYSLPFWAALLAVAAVVRLAGGSPVLRGLALLATSNALLLAIPGFSAADLALVWAVSGVALASARTLSRSAPGSSRARRVVVVGSVVAILAFLALFKYRFLQGLLLGPFAQVLAPRASSGVVNPLVLVGVSYFSFKAIHVVVETYRGTLGRVEALAFLNYMTFFPAFISGPINRFGDFSEQLASASPALGADLRAGGERIVHGLFKKVVLVPLVMPYLLTNQARPLDQATLLDVATGLYAYALYFFFDFAGYTDLAIGGARIIGIRLPENFRQPFFQKNIRDLWTNWHMTLTSWLVDYVYWPTVRALRNLEYLRTRPVLLSVIGMNVTFVSCGIWHGEAPHFVLWGAYHGLGISVLNVYQRQKKRIRAPRIQRWFASRYSRWLGTFATFNFFAAGLALFVLDLGQIRALLRALVG,failed
10,MDKTKRKMIYETFMLILILLSLALLPYRNNFTFILNWIIWVIFTLDYLVRLYRADNKWHYVKTHPFQLIAIIPFYGGFRAARIVSFVHLLSITAMGRRYIVPIYSFFRSNGLNRFLMIFVLLVIIIPVPMVFIEPEINNYPDALWWAIVTATTVGYGDIVPVTPIGRILASIMMLFGIAFIGMITSTITNFFRAKKPTNSSTQRANKITQLISETPDLTKEEIAVVEQFLTLRKKELADENTKSDSE,failed
11,MDRMWSPWRSAYVSEANDREPTDDESIFTALLREERDEENLILWRGEHVFVIMNRHPYNSGHLLILPYREVTQYDALNAPEQQALTAALDRCMGWLREAVSPDGFNVGMNLGRAAGAGIPDHLHAHVVPRWDGDTNFMATTANTKVLPEDLQTTYGKLRAAMAPDARDTTKPAAQKPSE,failed
12,MNAKSRPSRKLLKGAVIGPAQLMADQPFSVIRAVSRRSDRDHVGVLAAGVAFFSLLASFPALVTLITLYGLFTGPQEAVRQIAEAGVYLPRGVHDLLAEHLPRLAQASPGSLGLGAITSLLFSIWSASRGMGAMVDGVDIAYQVGDGRGFLRKSILVVGLTLAGLVVSAIALPLIVGLPALFDRLPLPLEIRWALALARWPLLFALVLGALAVLFRYAPDRENPRWRWVTPGALAAATLWILASGGLSLYVGLVSSYDQTYGTLAGVVVAMMWLYLASYAVLLGAEINAELEDRGMERIKKDQAAAKAAVARA,failed
13,PRWSVAAATAVTDFCDRLACDRVALGRRHRRRSKVVSLSHSGNFQRSSELVQRIADAMDEAIDQGEPIRMPQDSDNTLTLTAAHQELIHSGVPRAVLTVLLRRDGRVTGAMVLERGGNNPFRDEEVELVEAVAGILGPVLEEKRLNDR,failed
14,KVDKKTYKNLIVELQQRMREIQFALYERKIPLVLVFEGMDAAGKGGNIKRIREKLDPTGYEVNGISAPTDVELKHHYLWRFAKKMPKSGHIEIFDRSWYGRVLVERVEGFASQNEWQRASDEINQFEKMWTDEGTIILKFFLCLDKDEQLKRFKDRENNPDKQWKITEEDWRNREKWDEYLEASHDMIESTNTSYAPWYIVPADHKKTSRIEVLKTIIRKCEEVLWGVKTY,failed
15,MSRSTRSDQNARIRQRLGQPESGWRQRWYTIIFEADTRPGRTFDIVLLVAIIASVAVVMLDSIQAIHARLGTVFTALEWLFTLLFTTEYIMRLSVVRRPLRYVFSFYGIIDFLSIIPTWASFFVPELAFLIDVRLLRLLRVFRILKLTVYFEEAEILMLALSNSRRKIFVFLGTVFIITVILGTIMYVVEGPTHGFTSIPVSMYWAIVTLTTTGFGDMVPKTPIGQFITSITILLGYGIIAFPTGIVGAELAASIIRRPLTTRSCEHCLTEGHEPDATFCKHCGTALPEYRTELATDRRGDDGSRSR,failed
16,MGHHHHHHSHSSEVNATEEMSTLVNYIEPVKFKSFEAARKRNKCFEMSSFVETKAMEQLTKSPMEFVEYNKQQLSRIYPKGTRVDSSNYMPQLFWNVGCQLVALNFQTLDVAMQLNAGVFEYNGRSGYLLKPEFMRRPDKSFDPFTEVIVDGIVANALRVKVISGQ,failed
17,MATQARLPLPVGSTTSVSVVIPAKNVAAYVGETLASALAQGEVTEVIVVDDGSTDNTIAIVRAIRDPRLRLMTNDSAGVSAARNLGARHASGEWLLFLDADDRLRPGAVAALLAAARGAPRAVLVYGDYNTIDSEGRQVGRRDLLKGRRKPSGDVLTRLAASNFIVNGGIALARAEAFRAIGGFDTSLRYCEDWHCWCRLAAIGEFEFAPKLLLDYRLHTANTMNAAVRTPQDFFPAIARVFDDGLILARLPEGTAARLRQAAEIHLVTYSAMQAVRFGRYRQAFTYLGMVGRRSLKSLPRSALRVALACFGILEHHHHHH,failed
18,MRKFIISFCCYVFFIFTLAAQDKAPHYTVIVSLDAFRWDYPAMYDTPNLNQMAREGVKATMLPSYPASTFPNHYTLATGLVPDHNGIINNTFWDVKRRRQYSMGDPATRNNPDYYLGEPIWITAQKQGVKTGNVYWVGSDIAIKGGYPTYYREYAEKPRLTFEQRVDSTIALLEKPEAERPRLVMLYFEEPDGVTHHHGPRSVEAAAIIHRMDSLVGMLRQGIASLPFGKDVNLIVTADHGMTEISDDRVVDMNKYLRPEWCEAVDGRTPTSIFTKPEYRDSVYNALKDVPHIHVWKKEEIPAELNYGSSDRIGDIVVAPELGWQFTDVPRALKGAHGYFPQSPDMQVMFRACGPDFKAGYESKGFVNVDIYPLLAHLLKITPEKTDGQFERIKDILKDVSFLEHHHHHH,failed
19,GQVDGEDVVSISSADLDETEGNLNMTTVSVRSGMTLSQVISRWLFTDDTIVPIEQVFPPGQSTEEVEESNRTAFISSESSATIAAMNYLNIPVEVEVAEVLTDSAATGIFEPGDKLLSIDGTAISTPGDAQTIVRSKAPGDEITISYERNDAESQATITLREHPDDSSVALLGISMLSVP,failed
20,MMHPVASSNPAFCGPGKPSCLNEDAMRAADQFDIYSSQQSKYSHTVNHKPMVCQRQDPLNETHLQTTSGRSIEIKDELKKKKNLNRSGKRGRPSGTTKSAGYRTSTGRPLGTTKAAGFKTSPGRPLGTTKAAGYKVSPGRPPGSIKALSRLADLGYGCGTAAFPYPMMHGRAVHGVEETSSEVKPPNE,failed
21,MEKNLLRSALKIFEKKDLSLLAYSGRSIFESKDSGLKPVVELFKRFDNLEGSLVIDKMVGKAAASFLLKMKPDHIHAKVISKPALKLMNEYGQSFSYDEKIPFVLGKDGKSMCPFEKLVLEMDDPEEIIRIVLSKFTSL,not failed
22,MKGNFHSTYDQGFARVAACTTTVHIGDPASNVAGILDTCRELSSRSVAIAVFPELCLTGYAIDDLLLQDVVLDAVLDAIETVRQASRSLFPVIIVGAPLQRGNRLYNCAVVIHRGQVLGVVPKSHLPNYREFYEKRHFAVGAGTTGMIDLSGRQKSHAASTEIPFGPDQLFRATDLPDLTFHVEVCEDLWVPVAPSSQAALAGAVVEVNLSGSPITVGKSRQRHELCKVTSSRNLQAYVYAAAGPGESSTDLSWDGQTMIYENGSLLAATDRFSPEPGYCLADIDLDLLRQERLRQGSFDDNALAQPAQAPWRTTIFTLDPPHDDIGLERPVNRFPFVPNDPDQLAQDCYEAYNIQVYGLRRRLESMGSPKIVIGVSGGLDSTHALLVAAKAMDQMGRPRTDILAFTMPGFATTDHTKNNALDMCRALGIPCEVLDIRPAATQMLKGMSHPAGDGAEVYDVTFENVQAGLRYDYLFRIANQRGGIVLGTGDLSELALGWCTFGVGDQMSHYGVNTGVPKTLIQHLIRWCISSGQFNEATNVVLESVLGTEISPELVPARPGEKIQSTQAKIGPYELQDFTLYHLLRHGMRPSRIIFLSHHAWRDASVGSWPPGFRDEDRHSYDLSAIKDWTRLFLRRFVGNQFKRSTLPNGPKVVAGGSLSPRGDWRMPSDAVVRAWLDDLETVPDERF,failed
23,KKAKKVRFYRNGDRYFKGIVYAISPDRFRSFEALLADLTRTLSDNVNLPQGVRTIYTIDGLKKISSLDQLVEGESYVCGSIEPFKKLEYTKNVNPNWSVNVKT,not failed
24,TGEREYIKKLEPMLKELGWWGKAKDENGNEVQLGSPRRLRTILRTNKITAYHAARYAQQMENVDEQPYWRYVAVNDSRTRASHLALHGKIYRADDPIWQTMYPPNDWGCRCRVEALS,failed
25,MSRVAPRDSAAQAASAVAESVRYQGRKASRQGSEQRRQAILDAAMRLIVRDGVRAVRHRAVAAEAQVPLSATTYYFKDIDDLITDTFALFVERNAEALSAFWSSVEGDLQEMAAVLADDPGARGSLVERIVELAVQYVQVQLTERREHLLAEQAFRQEALLNPRLRELADAHQRILSLGAVHFFQVLGSGQPEQDAKVLTSIILQMEYQGLVDGVEQLAVDEMRAILRRYLNLVMGL,not failed
